Experimental data published in patent publication US20260049138A1 (Chugai, published 2026).
Substitutions are numbered along the chain they refer to. Names and notes keep the numbering of the source.

B1: CE115HA000 N54D one-arm antibody (antibody, human IgG1, kappa, L234A L235A, N297A, name in Kabat numbering)
heavy: QVQLVESGGGVVQPGRSLRLSCAASGFTFSNAWMHWVRQAPGKGLEWVAQIKAKSNDYATYYAESVKGRFTISRDDSKNSLYLQMNSLKTEDTAVYYCRYVHYGAYYGVDAWGQGTTVTVSSASTKGPSVFPLAPSSKSTSGGTAALGCLVKDYFPEPVTVSWNSGALTSGVHTFPAVLQSSGLYSLSSVVTVPSSSLGTQTYICNVNHKPSNTKVDKKVEPKSCDKTHTCPPCPAPEAAGGPSVFLFPPKPKDTLMISRTPEVTCVVVDVSHEDPEVKFNWYVDGVEVHNAKTKPREEQYASTYRVVSVLTVLHQDWLNGKEYKCKVSNKALPAPIEKTISKAKGQPREPQVYTLPPSRCELTKNQVSLSCAVKGFYPSDIAVEWESNGQPENNYKTTPPVLDSDGSFFLVSKLTVDKSRWQQGNVFSCSVMHEALHNHYTQKSLSLSPDYKDDDDK
chain: EPKSSDKTHTCPPCPAPELLGGPSVFLFPPKPKDTLMISRTPEVTCVVVDVSHEDPEVKFNWYVDGVEVHNAKTKPREEQYNSTYRVVSVLTVLHQDWLNGKEYKCKVSNKALPAPIEKTISKAKGQPREPQVCTLPPSRDELTKNQVSLWCLVKGFYPSDIAVEWESNGQPENNYKTTPPVLDSDGSFFLYSKLTVDKSRWQQGNVFSCSVMHEALHNRYTQKSLSLSP
light: DIVMTQSPLSLPVTPGEPASISCRSSQSLVHSNRNTYLHWYQQKPGQAPRLLIYKVSNRFSGVPDRFSGSGSGTDFTLKISRVEAEDVGVYYCGQGTQVPYTFGQGTKLEIKRTVAAPSVFIFPPSDEQLKSGTASVVCLLNNFYPREAKVQWKVDNALQSGNSQESVTEQDSKDSTYSLSSTLTLSKADYEKHKVYACEVTHQGLSSPVTKSFNRGEC
B2: CE115HA000 N54F one-arm antibody (antibody, human IgG1, kappa, L234A L235A, N297A, name in Kabat numbering)
heavy: B1 heavy with D57F
chain: B1 chain
light: B1 light
B3: CE115HA000 N54G one-arm antibody (antibody, human IgG1, kappa, L234A L235A, N297A, name in Kabat numbering)
heavy: B1 heavy with D57G
chain: B1 chain
light: B1 light
B4: CE115HA000 N54K one-arm antibody (antibody, human IgG1, kappa, L234A L235A, N297A, name in Kabat numbering)
heavy: B1 heavy with D57K
chain: B1 chain
light: B1 light
B5: CE115HA000 N54L one-arm antibody (antibody, human IgG1, kappa, L234A L235A, N297A, name in Kabat numbering)
heavy: B1 heavy with D57L
chain: B1 chain
light: B1 light
B6: CE115HA000 N54Q one-arm antibody (antibody, human IgG1, kappa, L234A L235A, N297A, name in Kabat numbering)
heavy: B1 heavy with D57Q
chain: B1 chain
light: B1 light
B7: CE115HA000 N54S one-arm antibody (antibody, human IgG1, kappa, L234A L235A, N297A, name in Kabat numbering)
heavy: B1 heavy with D57S
chain: B1 chain
light: B1 light
B8: CE115HA000 N54Y one-arm antibody (antibody, human IgG1, kappa, L234A L235A, N297A, name in Kabat numbering)
heavy: B1 heavy with D57Y
chain: B1 chain
light: B1 light
B9: CE115HA000 N76S one-arm antibody (antibody, human IgG1, kappa, L234A L235A, N297A, name in Kabat numbering)
heavy: B1 heavy with D57N, N79S
chain: B1 chain
light: B1 light
B10: CE115HA000 N82aD one-arm antibody (antibody, human IgG1, kappa, L234A L235A, N297A, name in Kabat numbering)
heavy: B1 heavy with D57N, N86D
chain: B1 chain
light: B1 light
B11: CE115HA000 Q50A one-arm antibody (antibody, human IgG1, kappa, L234A L235A, N297A, name in Kabat numbering)
heavy: B1 heavy with Q50A, D57N
chain: B1 chain
light: B1 light
B12: CE115HA000 Q50D one-arm antibody (antibody, human IgG1, kappa, L234A L235A, N297A, name in Kabat numbering)
heavy: B1 heavy with Q50D, D57N
chain: B1 chain
light: B1 light
B13: CE115HA000 Q50E one-arm antibody (antibody, human IgG1, kappa, L234A L235A, N297A, name in Kabat numbering)
heavy: B1 heavy with Q50E, D57N
chain: B1 chain
light: B1 light
B14: CE115HA000 Q50I one-arm antibody (antibody, human IgG1, kappa, L234A L235A, N297A, name in Kabat numbering)
heavy: B1 heavy with Q50I, D57N
chain: B1 chain
light: B1 light
B15: CE115HA000 Q50K one-arm antibody (antibody, human IgG1, kappa, L234A L235A, N297A, name in Kabat numbering)
heavy: B1 heavy with Q50K, D57N
chain: B1 chain
light: B1 light
B16: CE115HA000 Q50L one-arm antibody (antibody, human IgG1, kappa, L234A L235A, N297A, name in Kabat numbering)
heavy: B1 heavy with Q50L, D57N
chain: B1 chain
light: B1 light
B17: CE115HA000 Q50S one-arm antibody (antibody, human IgG1, kappa, L234A L235A, N297A, name in Kabat numbering)
heavy: B1 heavy with Q50S, D57N
chain: B1 chain
light: B1 light
B18: CE115HA000 Q50Y one-arm antibody (antibody, human IgG1, kappa, L234A L235A, N297A, name in Kabat numbering)
heavy: B1 heavy with Q50Y, D57N
chain: B1 chain
light: B1 light
B19: CE115HA000 Q105E one-arm antibody (antibody, human IgG1, kappa, L234A L235A, N297A, name in Kabat numbering)
heavy: B1 heavy with D57N, Q114E
chain: B1 chain
light: B1 light
B20: CE115HA000 R16E one-arm antibody (antibody, human IgG1, kappa, L234A L235A, N297A, name in Kabat numbering)
heavy: B1 heavy with R16E, D57N
chain: B1 chain
light: B1 light
B21: CE115HA000 R16Q one-arm antibody (antibody, human IgG1, kappa, L234A L235A, N297A, name in Kabat numbering)
heavy: B1 heavy with R16Q, D57N
chain: B1 chain
light: B1 light
B22: CE115HA000 R19T one-arm antibody (antibody, human IgG1, kappa, L234A L235A, N297A, name in Kabat numbering)
heavy: B1 heavy with R19T, D57N
chain: B1 chain
light: B1 light
B23: CE115HA000 S30D one-arm antibody (antibody, human IgG1, kappa, L234A L235A, N297A, name in Kabat numbering)
heavy: B1 heavy with S30D, D57N
chain: B1 chain
light: B1 light
B24: CE115HA000 S30G one-arm antibody (antibody, human IgG1, kappa, L234A L235A, N297A, name in Kabat numbering)
heavy: B1 heavy with S30G, D57N
chain: B1 chain
light: B1 light
B25: CE115HA000 S52cA one-arm antibody (antibody, human IgG1, kappa, L234A L235A, N297A, name in Kabat numbering)
heavy: B1 heavy with S55A, D57N
chain: B1 chain
light: B1 light
B26: CE115HA000 S52cD one-arm antibody (antibody, human IgG1, kappa, L234A L235A, N297A, name in Kabat numbering)
heavy: B1 heavy with S55D, D57N
chain: B1 chain
light: B1 light
B27: CE115HA000 S52cF one-arm antibody (antibody, human IgG1, kappa, L234A L235A, N297A, name in Kabat numbering)
heavy: B1 heavy with S55F, D57N
chain: B1 chain
light: B1 light
B28: CE115HA000 S52cG one-arm antibody (antibody, human IgG1, kappa, L234A L235A, N297A, name in Kabat numbering)
heavy: B1 heavy with S55G, D57N
chain: B1 chain
light: B1 light
B29: CE115HA000 S52cK one-arm antibody (antibody, human IgG1, kappa, L234A L235A, N297A, name in Kabat numbering)
heavy: B1 heavy with S55K, D57N
chain: B1 chain
light: B1 light
B30: CE115HA000 S52cL one-arm antibody (antibody, human IgG1, kappa, L234A L235A, N297A, name in Kabat numbering)
heavy: B1 heavy with S55L, D57N
chain: B1 chain
light: B1 light
B31: CE115HA000 S52cQ one-arm antibody (antibody, human IgG1, kappa, L234A L235A, N297A, name in Kabat numbering)
heavy: B1 heavy with S55Q, D57N
chain: B1 chain
light: B1 light
B32: CE115HA000 S52cV one-arm antibody (antibody, human IgG1, kappa, L234A L235A, N297A, name in Kabat numbering)
heavy: B1 heavy with S55V, D57N
chain: B1 chain
light: B1 light

Target: T1, CD3ε homodimer protein (human, UniProt P07766 23-126, limits assumed, sulfo-tag or biotin label in the ECL assays; amine-coupled to the chip in SPR)
T1 construct: also called human CD3ε homodimer protein; CD3 (CD3ε)
Experiment: SPR Biacore T200; CD3ε homodimer on CM4 chip;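 further: Single-residue variant antibodies injected as analyte over CD3ε homodimer immobilized by amine coupling, run at 25 °C in HBS-EP+ buffer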

T1 sequence (P07766 23-126 limits assumed): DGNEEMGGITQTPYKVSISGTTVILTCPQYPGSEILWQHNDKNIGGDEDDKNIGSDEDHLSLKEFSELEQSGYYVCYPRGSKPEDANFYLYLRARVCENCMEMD

| Binder | ratio of amounts bound Z=Y/X (altered form / CE115HA000) |
| --- | --- |
| B1 | 0.62 |
| B2 | 1.12 |
| B3 | 0.98 |
| B4 | 1.2 |
| B5 | 0.94 |
| B6 | 0.84 |
| B7 | 0.84 |
| B8 | 1.03 |
| B9 | 0.92 |
| B10 | 0.73 |
| B11 | 0.24 |
| B12 | 0.27 |
| B13 | 0.26 |
| B14 | 0.4 |
| B15 | 0.33 |
| B16 | 0.23 |

| Binder | ratio of amounts bound Z=Y/X (altered form / CE115HA000) |
| --- | --- |
| B17 | 0.24 |
| B18 | 0.25 |
| B19 | 0.94 |
| B20 | 0.88 |
| B21 | 0 |
| B22 | 0.8 |
| B23 | 0.86 |
| B24 | 1.01 |
| B25 | 0.96 |
| B26 | 0.6 |
| B27 | 1.13 |
| B28 | 0.97 |
| B29 | 1.19 |
| B30 | 0.98 |
| B31 | 1.04 |
| B32 | 0.93 |
